Assay results: patent publication US20130209365A1 (ACADEMIA SINICA, published 2013)

B1: phage-displayed anti-c-Met scFv PC21 (scFv, not shown: large carriers)
scFv: MAEVQLVESGPGLVKPSGTLSLKCDASAISMDSNYWWSWLRQPPGKGLEWIGEISHSGSTDYNPSLKSRATISIDKSKKQFFLRLKSVTAADTAVYYCAGLLSPLDAFDEWGQGTMVTVGGGGSGGGGSGGGGSDIQMTQSPSSLSASVGDRVTITCRASQRVATYLNWYQQKPGKAPNLLIYEASSLQSGVPSRFSGRRSGTDFTLTISSLQPEDFATYYCQQSYNTPYTFGQGTRLEIKR
notes: tested as whole phage; also called anti-c-Met phage clone 21
B2: phage-displayed anti-c-Met scFv PC1 (scFv, not shown: large carriers)
scFv: MAQVQLQQSGPGLVKPSQTLSLTCDISGDSVSSNSAAWNWIRQSPSRGLEWLGRTYYRSRWYNEYAVSVRGRISINAETSKNQFSLQLNSVTPEDTAIYYCARAGFCSGGNCYPGSEDAFDLWGQGTMVTVGGGGSGGGGSGGGGSDVVMTQSPPSLSVSVGDRVTITCRASQDITNDLNWYQQKPGKAPQLLIYHASELETGVPSRFSGSGFGTDFTLTISSLQPADIATYYCQQYDDLPLTFGGGTKVEIKR
notes: tested as whole phage; also called anti-c-Met phage clone 1

Biological target: T1, BSA control protein (bovine, UniProt P02769 25-607)
T1 construct: also called bovine serum albumin
T1 sequence (P02769 25-607 limits assumed): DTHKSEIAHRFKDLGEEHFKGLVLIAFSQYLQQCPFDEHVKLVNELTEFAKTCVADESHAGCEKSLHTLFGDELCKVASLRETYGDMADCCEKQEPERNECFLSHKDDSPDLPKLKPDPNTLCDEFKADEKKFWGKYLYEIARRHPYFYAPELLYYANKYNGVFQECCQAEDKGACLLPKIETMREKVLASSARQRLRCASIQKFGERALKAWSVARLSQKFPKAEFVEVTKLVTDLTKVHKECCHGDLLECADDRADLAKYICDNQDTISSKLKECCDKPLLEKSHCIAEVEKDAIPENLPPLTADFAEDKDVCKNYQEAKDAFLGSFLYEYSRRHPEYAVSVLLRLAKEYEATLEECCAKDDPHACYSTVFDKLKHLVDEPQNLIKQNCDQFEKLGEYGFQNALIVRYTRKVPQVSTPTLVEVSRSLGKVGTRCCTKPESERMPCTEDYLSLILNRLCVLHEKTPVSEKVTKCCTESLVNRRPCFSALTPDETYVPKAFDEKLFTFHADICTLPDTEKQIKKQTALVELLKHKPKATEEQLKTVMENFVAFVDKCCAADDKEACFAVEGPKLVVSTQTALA
Assay: phage ELISA

Binder	binding result
B1	no binding
B2	no binding
